In the supplement of paper PMC10567573:

B1: RSPH3 (parent)
chain: LELQRQREARKRALARKQAQEQLR

Variants of: B1
Test: protein stability index of a GFP-peptide fusion (GPS, HEK-293T) (PSI 1-6); higher = more stable
Details: c terminus: a fixed tail appended
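Note: lentivirally expressed fusions sorted by FACS into six bins by GFP to DsRed ratio, PSI derived from sequencing read proportions per bin multiplied by bin number.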

Protein stability index: each site, then its substitutions
A15: F 3.56; D 3.94; W 3.53; K 3.57; E 4.31; G 4.12; M 2.79; H 3.96; V 3.69; I 3.15; Y 3.61; S 4.04; N 4.32; C 3.42; Q 2.39; L 4.05; P 4.2; R 3.15
L14: V 4.13; A 4.46; I 3.67; K 3.46; N 4.04; W 2.65; C 3.74; D 4.66; M 3.32; G 4.75; Q 4.53; S 4.42; T 4.19; Y 3.22; R 4.4; P 4.39; E 4.35; H 4.32; F 3.74
R16: L 4.25; S 3.27; A 4.19; K 3.93; G 4.46; Y 3.4; V 3.17; D 3.99; C 3.57; I 3.7; T 4.02; M 3.39; Q 3.96; N 4.6; F 3.43; E 4.26; W 3.74; P 4.32; H 4.14
Q22: Y 3.01; K 3.77; A 4.19; D 4.29; V 3.37; E 3.8; T 3.16; I 2.65; R 3.93; G 4.22; W 2.8; M 2.92; N 4.14; C 3.11; F 3.04; P 3.79; H 2.95; L 3.63; S 3.5
E8: P 3.67; G 3.66; K 3.95; A 3.99; L 2.98; H 3.83; W 3; S 3.62; I 2.38; Y 3.46; M 3.43; C 3.64; V 3.39; D 3.81; N 3.44; T 4.06; F 3.24; R 4.26; Q 3.71
K17: V 4.31; C 3.77; E 4.69; Q 4.15; T 4.43; P 4.48; M 4.14; I 3.77; G 4.66; Y 3.71; L 3.97; H 4.17; N 4.45; A 4.1; R 4.38; F 3.95; W 3.44; D 3.92; S 4.21
Q20: W 2.04; Y 2.45; E 4.48; P 4.32; D 4.74; V 3.78; M 2.88; S 3.77; N 3.11; R 3.79; A 3.61; L 2.8; C 3.35; I 3.47; F 2.02; T 3.79; H 3.77; G 3.52; K 4.38
R10: Y 3.17; H 3.79; P 4.3; V 3.38; A 4.57; L 3.62; Q 4.43; I 3.22; F 3.52; T 3.92; S 4.2; N 4.28; M 3.76; E 4.08; G 4.26; W 3.53; D 4.38; K 3.07; C 3.43
Q6: C 3.17; I 2.98; K 4.63; L 3.33; E 4.46; R 3.41; M 2.92; F 3.35; A 4.14; P 3.64; S 3.76; Y 3.71; N 3.73; H 2.96; G 4.55; D 4.05; T 3.87; V 3.37; W 4.26
L23: H 4.25; F 3.96; G 4.78; E 4.59; P 3.78; K 3.83; I 3.56; M 4.31; D 4.42; C 4.26; N 3.92; A 4.96; Q 4.35
Q18: I 2.33; K 3.39; L 3.13; A 3.12; C 2.81; S 3.38; Y 2.81; F 3.53; M 3.46; R 3.64; E 3.86; H 3.11; T 4.05; N 3.68; G 3.4; P 4.32; V 2.56; W 2.5
R12: S 3.81; Y 3.77; P 4.25; D 4.15; G 4.23; A 4.23; L 3.22; T 3.79; M 4.18; E 4.71; V 3.81; I 4.21; C 3.9; F 2.82; H 3.71; N 4.45; K 3.97; Q 4.33; W 3.21
A13: P 4.14; M 3.29; H 4.06; N 4.25; T 3.85; F 3.39; S 3.77; G 3.33; Q 4.45; E 4.5; L 3.35; W 3.73; K 3.36; R 4.18; C 3.24; V 3.78; I 3.76; Y 3.49; D 4.07
E21: K 4.28; V 3.31; Q 3.23; I 3.33; H 3.23; Y 3; M 3.75; R 3.99; F 2.93; D 3.62; T 3.81; A 2.72; P 3.45; S 3.73; G 3.09; C 3.01; L 3.48; N 3.87; W 3.48
R5: Y 4.19
K11: Q 4.35; T 3.46; C 2.94; L 3.82; R 3.78; V 2.74; F 3.46; G 4.44; S 4.11; Y 3.07; A 3.84; D 4.51; M 3.5; E 4.35; N 3.8; H 4.44; W 2.92; P 3.82; I 3.27
A19: W 3.15; F 3.08; D 4.37; I 3.55; M 3.37; Y 2.92; L 3.09; P 3.72; K 4.08; V 3.27; N 4.08; Q 4.54; G 3.53; E 3.28; C 4.22; S 4.17; T 4; H 4.33
A9: D 3.63; G 4.04; L 3.47; C 4.05; Q 3.32; E 3.85; N 3.45; M 3.84; S 4.01; V 3.71; W 2.86; I 3.39; K 3.68; F 2.73; R 4.11; H 4.07; T 3.31; Y 3.71; P 4
R7: Q 4.01; W 3.46; C 3.87; F 4.1; M 3.52; A 3.61; N 4.08; H 4.29; D 4.49; G 4.52; I 3.25; V 4.02; E 4.31; T 4.43; S 4.36; P 3.71; Y 3.85; K 3.56; L 4.2
